Measured values taken from patent US20230001007A1, “Glycan-Interacting Compounds and Methods of Use” (Seagen Inc., priority 2017, published 2023).

How the values were obtained:
HT29 = test: STn expression on CRC line by flow cytometry using anti-STn antibodies; assay type: cell-based; details: detected using hSIA101
Protocol: (§1) Mouse antibodies were characterized for in vitro and in vivo efficacy in breast, colon and ovarian cancer models. The antibodies were used to identify CRC cell lines that express STn on the surface. Five CRC lines were incubated in vitro and grown to confluency. % STn expression was determined by flow cytometry using anti-STn antibodies. Approximately 30-70% of cultured SW403, COL0205 and LS174T cells naturally expressed STn on the surface (as detected using mSIA103), while HT29 and RKO had very little to no detectable STn (as detected using hSIA101) on their cell surface (see Table 6).

RKO = test: as above; assay type: cell-based; details: detected using hSIA101
Protocol: as §1

MDA-MB-231-STn cells = test: Flow cytometry-based binding analysis; details: 0 to 300 nM, read-out: MDA-MB-231-STn cell binding [EC50 (nM)]
Protocol: Humanized IgG1 antibodies, prepared as described above, were subjected to characterization analysis including flow cytometry-based binding analysis with MDA-MB-231-STn cells; binding analysis by BSM ELISA; and glycan array analysis.
In flow cytometry-based binding studies, antibodies were screened over a concentration range of 0 to 300 nM, comparing binding to MDA-MB-231 cells with or without transfection-induced STn expression. Binding was determined using an anti-human APC conjugated secondary antibody and only live cells were considered (based on propidium iodide negative gating). 5,000 events were collected per sample on average. Data were analyzed using FlowJo software (Asland, Oreg.) and resulting APC means and % APC were obtained. […] Human isotype IgG1 antibody was used as an isotype negative control. Epidermal growth factor receptor (LA22, EMD Millipore, Billerica, Mass.) was used as a positive control.

[1] = target: bovine submaxillary mucin (BSM); test: BSM ELISA, periodate-sensitive STn binding; details: periodate-sensitive STn binding curve, 0 to 100 nM
Protocol: For BSM ELISA analysis, antibodies were screened over a concentration range of 0 to 100 nM on bovine submaxillary mucin (BSM) coated wells. A subset of wells were treated with mild periodate solution before antibody introduction to remove the side chain on terminal sialic acid residues (destroying the STn antigen). Optical densities of periodate and non-periodate-treated wells were determined and log transformed then fit to a nonlinear regression model to obtain a dose response curve. Optical density values obtained from periodate-treated wells were subtracted from non-periodate treated wells to obtain a periodate-sensitive STn binding curve and corresponding EC50 values.

[2] = tested on: Primary patient CRC samples; test: STn expression in primary patient CRC samples by flow cytometry; assay type: cell-based; details: % of viable CD45−/CD34− population
Text: Primary patient CRC samples were probed by flow cytometry with hSIA101 and two commercial antibodies B72.3 and CC49. All 10 samples tested were STn positive. In the table, % STn is expressed as % of viable CD45−/CD34− population. STn expression was often more robustly identified with hSIA101 than the commercial antibodies.

normal human tissues = test: Tissue cross-reactivity study, frozen tissue sections; assay type: binding; set-up: key to tissue staining: 1+=weak staining; 2+=moderate staining; 3+=strong staining; 4+=intense staining; Neg=negative; freq=frequent (staining in >75%-100% of cells); occ=occasional (staining in >25%-50% of cells); rare refers to staining in 1-5% of cells; details: for tissue staining: Human, 1-3 μg/ml
Protocol: (§2) Tissue cross-reactivity studies were conducted to assess the binding profile (both on- and potential off-target binding) to human and relevant species used in nonclinical safety testing. Humanized anti-STn antibodies were examined for binding to a panel of normal human, rat, mouse, and cynomolgus monkey tissues. The study was conducted on […] normal frozen tissue sections at 1-3 μg/ml: heart, brain, kidney, stomach, lung, small intestines, colon, liver, pancreas, spleen and bone marrow. The positive control was a human pancreatic neoplasm that contained STn positive cancer cells and the negative control was normal stromal cells contained within the same specimen. Staining across all normal tissues was restricted to the cytoplasm. Additional analyses were conducted without primary antibody or using isotype control IgG as negative controls.
(§3) Antibodies were also found to cross react with similar types of tissue from Cynomolgus monkey (see Table 17) and rat (not shown).

[3] = tested on: cynomolgus monkey tissues; test: as above; assay type: binding; set-up: key: 1+=weak staining; 2+=moderate staining; 3+=strong staining; 4+=intense staining; Neg=negative; freq=frequent (staining in >75%-100% of cells); occ=occasional (staining in >25%-50% of cells); rare refers to staining in 1-5% of cells; details: Cyno, 1-3 μg/ml
Protocol: as §2, §3

[4] = Small Intestine Epithelial Cells

B1: hSIA101 (antibody, V domains shown)
VH: EVQLVQSGAEVKKPGASVKVSCKASGYTFTDHAIHWVRQAPGQGLEWMGYFSPGNDDIKYNEKFRGRVTMTADKSSSTAYMELRSLRSDDTAVYFCKRSLSTPYWGQGTLVTVSS
VL: DIVMTQSPDSLAVSLGERATINCKSSQSLLNRGNHKNYLTWYQQKPGQPPKLLIYWASTRESGVPDRFSGSGSGTDFTLTISSLQAEDVAVYYCQNDYTYPYTFGQGTKVEIK
With B1 the “% STn expression” value (HT29) was “Low to non-detectable”, the “% STn expression” value (RKO) was “Low to non-detectable” and the EC50 (MDA-MB-231-STn cells) was 2 nM. The EC50 [1] was 4.2 nM, the “% STn+” value ([2]; Sample 160093-2, Colon) was 22.9% and the “% STn+” value ([2]; Sample 160101-2, Colon) was 10%. The “% STn+” value ([2]; Sample 160102-2, Colon) was 12.9%, the “% STn+” value ([2]; Sample 160104-2, Colon Met to Liver) was 47.8% and the “% STn+” value ([2]; Sample 160115-2, Colon) was 5.4%. The “% STn+” value ([2]; Sample 160127-2, Colon) was 4.2%, the “% STn+” value ([2]; Sample 160149-1, Colon) was 22.7% and the “% STn+” value ([2]; Sample 160151-1, Colon) was 19.6%. The “% STn+” value ([2]; Sample 169068-1, Colon) was 10.9%, the “% STn+” value ([2]; Sample 1601666, Colon) was 29.4% and the “staining of cerebrum, cerebellum, kidney and liver” value (normal human tissues) was “did not stain”. The “staining of positive control tissue (pancreatic neoplasm)” value (normal human tissues) was “strong membrane staining”, the tissue staining (normal human tissues; Colon Epithelial Cells) was 1+ freq (cytoplasm) and the tissue staining (normal human tissues; Colon Vessel) was “Neg”. For the same molecule, the tissue staining (normal human tissues; Heart Vessel) was 2+ rare (cytoplasm), the tissue staining (normal human tissues; Lung Epithelium) was “Neg” and the tissue staining (normal human tissues; Pancreas Vessel) was “Neg”. For the same molecule, the tissue staining (normal human tissues; [4]) was 2-4+ freq (cytoplasm), the tissue staining (normal human tissues; Spleen Vessel) was 2-3+ freq (cytoplasm) and the tissue staining (normal human tissues; Stomach Epithelial Cells) was 2-3+ freq (cytoplasm). The tissue staining (normal human tissues; Stomach Vessel) was “Neg”, the “cross-reactivity with normal human tissues” value (normal human tissues; among the three tested antibodies) was “lowest cross-reactivity” and the “staining on cell membranes in any tissue” value (normal human tissues; normal tissues) was “No staining was observed”. The tissue staining ([3]; Colon Epithelial Cells) was “Neg”, the tissue staining ([3]; Colon Vessel) was 4+ freq (cytoplasm) and the tissue staining ([3]; Heart Vessel) was “Neg”. The tissue staining ([3]; Lung Epithelium) was 2-3+ freq (cytoplasm), the tissue staining ([3]; Pancreas Vessel) was 2-3+ freq (cytoplasm) and the tissue staining [3, 4] was 3-4+ freq (cytoplasm). The tissue staining ([3]; Spleen Vessel) was “Neg”, the tissue staining ([3]; Stomach Epithelial Cells) was 2-3+ occ (cytoplasm) and the tissue staining ([3]; Stomach Vessel) was 2+ occ (cytoplasm).
